Common to all, as to assay: two-hybrid library CCNG1;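 further: natural log of median RNA to DNA barcode read ratio; higher means stronger binding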
One test deals with T1, 4H591-bA.
T1 chain: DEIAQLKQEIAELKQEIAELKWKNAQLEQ

Another test addresses T2, 4H626-bA.
T2 chain: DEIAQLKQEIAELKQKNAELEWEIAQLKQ

A further test concerns the target T3, 4H906-bA.
T3 chain: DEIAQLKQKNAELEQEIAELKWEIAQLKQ

A further test deals with T4, P1A-bH.
T4 chain: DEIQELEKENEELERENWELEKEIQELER

The next test concerns the target T5, 4H338-bN.
T5 chain: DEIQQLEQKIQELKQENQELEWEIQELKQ

A further test deals with T6, 4H908-bN.
T6 chain: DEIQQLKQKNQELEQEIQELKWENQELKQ

For another test, the target named is T7, 4H754-bN.
T7 chain: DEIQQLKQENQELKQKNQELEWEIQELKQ

Another test deals with T8, 4H717-bN.
T8 chain: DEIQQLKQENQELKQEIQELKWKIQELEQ

The target of the next test is T9, 4H918-bN.
T9 chain: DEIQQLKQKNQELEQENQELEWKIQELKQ

The target of another test is T10, 4H3782-bN.
T10 chain: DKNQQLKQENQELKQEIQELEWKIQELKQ

The target of the next test is T11, 4H967-bN.
T11 chain: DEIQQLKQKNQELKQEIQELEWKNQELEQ

Another test deals with T12, 4H2576-bN.
T12 chain: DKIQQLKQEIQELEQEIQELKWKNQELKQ

A further test concerns the target T13, 4H3427-bN.
T13 chain: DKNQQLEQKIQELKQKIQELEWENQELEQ

The next test has as its target T14, 4H2931-bA.
T14 chain: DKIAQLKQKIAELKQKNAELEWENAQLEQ

In the next test the target is T15, 4H687-bN.
T15 chain: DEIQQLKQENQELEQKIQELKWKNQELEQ

Another test concerns the target T16, 4H607-bN.
T16 chain: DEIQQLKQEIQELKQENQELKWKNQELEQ

For a further test, the target named is T17, 4H797-bN.
T17 chain: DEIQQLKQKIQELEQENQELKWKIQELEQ

The next test has as its target T18, 4H3354-bN.
T18 chain: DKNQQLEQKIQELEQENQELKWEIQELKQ

Another test deals with T19, 4H454-bN.
T19 chain: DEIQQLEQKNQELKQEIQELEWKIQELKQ

In another test the target is T20, 4H2618-bN.
T20 chain: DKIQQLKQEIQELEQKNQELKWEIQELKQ

The target of a further test is T21, 4H2692-bA.
T21 chain: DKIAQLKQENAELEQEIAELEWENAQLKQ

Another test deals with T22, 4H2729-bN.
T22 chain: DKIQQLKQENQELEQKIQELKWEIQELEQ

A further test has as its target T23, 4H568-bN.
T23 chain: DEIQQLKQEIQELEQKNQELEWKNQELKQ

Another test addresses T24, 4H72-bN.
T24 chain: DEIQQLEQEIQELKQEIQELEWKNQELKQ

The target in the next test is T25, 4H3112-bN.
T25 chain: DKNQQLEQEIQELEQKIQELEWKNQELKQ

The target of the next test is T26, 4H3855-bN.
T26 chain: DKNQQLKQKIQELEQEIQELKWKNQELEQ

Another test concerns the target T27, 4H2442-bN.
T27 chain: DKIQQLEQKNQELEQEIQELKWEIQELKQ

A further test has as its target T28, 4H883-bN.
T28 chain: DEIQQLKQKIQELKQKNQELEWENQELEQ

The target in the next test is T29, 4H331-bN.
T29 chain: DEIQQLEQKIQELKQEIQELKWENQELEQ

The target of the next test is T30, 4H953-bN.
T30 chain: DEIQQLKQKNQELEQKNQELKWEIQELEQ

Another test deals with T31, 4H3185-bN.
T31 chain: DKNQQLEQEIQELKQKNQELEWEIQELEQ

In the next test the target is T32, 4H2667-bN.
T32 chain: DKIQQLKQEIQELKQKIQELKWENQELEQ

In another test the target is T33, 4H4001-bN.
T33 chain: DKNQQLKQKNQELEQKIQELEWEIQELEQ

The next test addresses T34, 4H344-bH.
T34 chain: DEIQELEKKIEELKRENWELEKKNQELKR

The target of a further test is T35, 4H3961-bH.
T35 chain: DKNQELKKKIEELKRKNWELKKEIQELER

The target in a further test is T36, 4H2745-bH.
T36 chain: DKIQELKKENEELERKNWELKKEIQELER

The next test concerns the target T37, 4H470-bH.
T37 chain: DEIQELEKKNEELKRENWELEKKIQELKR

A further test deals with T38, 4H363-bH.
T38 chain: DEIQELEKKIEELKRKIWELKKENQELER

A further test deals with T39, 4H3907-bH.
T39 chain: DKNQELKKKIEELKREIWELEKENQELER

In another test the target is T40, 4H342-bH.
T40 chain: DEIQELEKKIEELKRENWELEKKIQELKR

For another test, the target named is T41, 4H48-bH.
T41 chain: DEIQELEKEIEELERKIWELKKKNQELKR

The next test has as its target T42, 4H2944-bH.
T42 chain: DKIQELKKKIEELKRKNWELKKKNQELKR

The next test addresses T43, 4H491-bH.
T43 chain: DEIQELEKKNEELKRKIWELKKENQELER

Another test concerns the target T44, 4H3427-bA.
T44 chain: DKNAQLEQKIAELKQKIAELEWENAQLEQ

The target of a further test is T45, 4H3926-bA.
T45 chain: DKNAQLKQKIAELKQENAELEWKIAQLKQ

For a further test, the target named is T46, 4H2627-bA.
T46 chain: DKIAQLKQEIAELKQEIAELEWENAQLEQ

In a further test the target is T47, 4H2586-bA.
T47 chain: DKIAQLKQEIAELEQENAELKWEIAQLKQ

For another test, the target named is T48, 4H953-bA.
T48 chain: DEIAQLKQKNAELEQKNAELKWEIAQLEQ

For another test, the target named is T49, 4H3010-bA.
T49 chain: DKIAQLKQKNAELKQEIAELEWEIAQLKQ

The next test concerns the target T50, 4H2673-bA.
T50 chain: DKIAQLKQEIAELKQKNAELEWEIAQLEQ

A further test addresses T51, 4H3112-bA.
T51 chain: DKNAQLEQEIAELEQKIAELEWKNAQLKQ

For the next test, the target named is T52, 4H2702-bA.
T52 chain: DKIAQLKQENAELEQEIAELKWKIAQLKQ

Another test deals with T53, 4H346-bA.
T53 chain: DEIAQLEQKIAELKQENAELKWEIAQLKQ

A further test deals with T54, 4H780-bA.
T54 chain: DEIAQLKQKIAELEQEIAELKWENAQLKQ

A further test has as its target T55, 4H797-bA.
T55 chain: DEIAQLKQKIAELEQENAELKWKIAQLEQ

Another test deals with T56, 4H683-bA.
T56 chain: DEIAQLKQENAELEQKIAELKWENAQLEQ

In the next test the target is T57, 4H1831-bA.
T57 chain: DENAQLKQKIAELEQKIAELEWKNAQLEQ

The target of a further test is T58, 4H170-bA.
T58 chain: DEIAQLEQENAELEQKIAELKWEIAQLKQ

The target in the next test is T59, 4H754-bA.
T59 chain: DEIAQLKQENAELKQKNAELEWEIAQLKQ

A further test addresses T60, 4H575-bA.
T60 chain: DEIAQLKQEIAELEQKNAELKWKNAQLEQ

Another test has as its target T61, 4H968-bA.
T61 chain: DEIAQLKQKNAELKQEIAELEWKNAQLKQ

For another test, the target named is T62, 4H457-bA.
T62 chain: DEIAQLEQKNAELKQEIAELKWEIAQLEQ

The next test deals with T63, 4H855-bA.
T63 chain: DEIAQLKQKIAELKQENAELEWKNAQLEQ

Another test deals with T64, 4H918-bA.
T64 chain: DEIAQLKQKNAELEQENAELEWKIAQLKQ

The next test has as its target T65, 4H4073-bA.
T65 chain: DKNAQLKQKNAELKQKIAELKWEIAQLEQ

In the case of DEIAQLKQEIAELKQEIAELKWKNAQLEQ [4H591-bA], the interaction score with 4H591-bA was 1.45; with 4H626-bA, -1.82; in the test with 4H906-bA it was -1.23; in the test with P1A-bH, 0.0694.
In the case of DKIQQLEQKNQELEQEIQELKWEIQELKQ [4H2442-bN], the interaction score with 4H338-bN was -0.476; with 4H908-bN it was -0.788; in the test with 4H754-bN it was -0.65; with 4H717-bN it was -1.28; with 4H918-bN, -0.127; in the test with 4H3782-bN it was 0.148. The interaction score was -0.892 in the test with 4H967-bN; -0.32 with 4H2576-bN; -0.236 with 4H3427-bN; 0.256 with 4H2931-bA; -0.717 with 4H687-bN; -1.3 with 4H607-bN. Moreover, the interaction score was -0.491 with 4H797-bN; -0.568 with 4H3354-bN; 0.883 with 4H454-bN; 0.706 with 4H2618-bN; -0.104 in the test with 4H2692-bA; 0.367 with 4H2729-bN. Besides, the interaction score with 4H568-bN is -0.89; with 4H72-bN, -0.588; with 4H3112-bN, -0.821; with 4H3855-bN it was -0.731; in the test with 4H2442-bN, -0.216; with 4H883-bN it was -0.738. Further, the interaction score in the test with 4H331-bN was 0.796; with 4H953-bN, -0.933; with 4H3185-bN it was -1.14; with 4H2667-bN, 0.241; in the test with 4H4001-bN, 0.0198.
For DKIQELKKENEELERKNWELKKEIQELER [4H2745-bH], the interaction score with 4H344-bH is -0.814; with 4H3961-bH it was -0.688; with 4H2745-bH, -0.337; with 4H470-bH, 1.22; with 4H363-bH, -0.763; in the test with 4H3907-bH, -0.566.
Take DKIQELKKKIEELKRKNWELKKKNQELKR [4H2944-bH]: the interaction score was 0.551 with 4H342-bH, 0.638 with 4H48-bH, -0.179 with 4H2944-bH and -0.773 with 4H491-bH.
As for DEIAQLEQENAELEQKIAELKWEIAQLKQ [4H170-bA], the interaction score with 4H3427-bA was 0.122; with 4H3926-bA it was 1.67; in the test with 4H2627-bA, 1.23; with 4H2586-bA it was -0.588; with 4H953-bA, 0.253; in the test with 4H3010-bA, 2.15. Besides, the interaction score is 1.01 with 4H2673-bA; -0.374 in the test with 4H3112-bA; 2.21 with 4H2702-bA; -1.19 in the test with 4H346-bA; -0.413 with 4H780-bA; -0.00525 with 4H797-bA. Further, the interaction score in the test with 4H683-bA is -0.581; with 4H1831-bA it was -1.05; with 4H170-bA it was 0.744; with 4H754-bA it was -0.923; with 4H575-bA, -0.482; in the test with 4H968-bA, 2.27. Further, the interaction score with 4H457-bA was 1.56; with 4H855-bA, -0.225; in the test with 4H918-bA it was 0.927; with 4H4073-bA it was 1.89.

For the origin of these results see article PMC10397247.
